Laboratory results taken from US20250154261A1 (published 2025).
Where two headings read alike, the source gives them in different places.

How the values were obtained:
Human CD33 R69G [1] = target: T1, Human CD33 R69G (human, UniProt P20138 18-259); assay: SPR captured Fab
Human CD33 S128N = Human CD33 S128N (human, UniProt P20138 18-259); assay: SPR captured Fab
Human CD33 R69G [2] = target: T1, Human CD33 R69G; assay: SPR captured Fab; remark: listed apart in the source
[3] = target: T2, human CD33 (antigen of the BLI measurement, Table 11) (human, UniProt P20138 18-259, limits assumed); assay: BLI, IgG on AHC
T2 construct: 100 nM antigen in solution; construct not described; whole entry named

V domain of human CD33 [4] = target: T3, V domain of human CD33 (human, UniProt P20138 18-139, limits assumed); assay: SPR captured Fab
T3 construct: Whole entry named; also called Human CD33 V domain

V domain of human CD33 [5] = target: T3, V domain of human CD33; assay: SPR captured Fab; remark: listed apart in the source

Binder	Kd (Human CD33 R69G [1]) [nM]	koff (Human CD33 R69G [1]) [s⁻¹]	kon (Human CD33 R69G [1]) [M⁻¹ s⁻¹]	Kd (Human CD33 S128N) [nM]	koff (Human CD33 S128N) [s⁻¹]	kon (Human CD33 S128N) [M⁻¹ s⁻¹]	further results
ADI-10164 Fab (Fab, V domains shown, Fab fragment; also called Ab18) VH: QVQLQESGPGLVKPSETLSLTCAVSGYSISSGYYWGWIRQPPGKGLEWIGSIYHSGSTNYNPSLKSRVTISVDTSKNQFSLKLSSVTAADTAVYYCARLPPWFGFSYFDLWGRGTLVTVSS VL: EIVLTQSPATLSLSPGERATLSCRASQSVSSYLAWYQQKPGQAPRLLIYDASNRATGIPARFSGSGSGTDFTLTISSLEPEDFAVYYCQQVDNYPPTFGGGTKVEIK	113	0.035	308000	279	0.0539	193000	
ADI-11802 Fab (Fab, V domains shown, Fab fragment; also called Ab23) VH: QVQLVQSGAEVKKPGASVKVSCKASGYTFSGYYMHWVRQAPGQGLEWMGMINPYGGSTRYAQKFQGRVTMTRDTSTSTVYMELSSLRSEDTAVYYCAREAADGFVGERYFDLWGRGTLVTVSS VL: not shown				0.809	0.00059	662000	
ADI-11828 Fab (Fab, V domains shown, Fab fragment; also called Ab27) VH: EVQLVESGGGLVQPGGSLRLSCAASGFTFSSYWMSWVRQAPGKGLEWVANINQDGSEVYYVDSVKGRFTISRDNAKNSLYLQMNSLRAEDTAVYYCARDVGPGIAYQGHFDYWGQGTLVTVSS VL: DIQMTQSPSSLSASVGDRVTITCRASQSIYYYLNWYQQKPGKAPKLLIYAASSRQSGVPSRFSGSGSGTDFTLTISSLQPEDFATYYCQQVYDTPLTFGGGTKVEIK	6.03	0.007	1.16e+06	5.41	0.00742	1.37e+06	
ADI-11815 Fab (Fab, V domains shown, Fab fragment; also called Ab7) VH: QVQLVQSGAEVKKPGASVKVSCKASGYTFGTYYMHWVRQAPGQGLEWMGIINPSRGSTVYAQKFQGRVTMTRDTSTSTVYMELSSLRSEDTAVYYCARGAGYDDEDMDVWGKGTTVTVSS VL: DIQMTQSPSSVSASVGDRVTITCRASQGIDSWLAWYQQKPGKAPKLLIYAASSLQSGVPSRFSGSGSGTDFTLTISSLQPEDFATYYCQQAHSYPLTFGGGTKVEIK	4.34	0.0013	300000				Kd (Human CD33 R69G [2]): 4.34 nM; koff (Human CD33 R69G [2]): 0.0013 s⁻¹; kon (Human CD33 R69G [2]): 300000 M⁻¹ s⁻¹
ADI-11839 Fab (Fab, V domains shown, Fab fragment; also called Ab28) VH: QVQLVQSGAEVKKPGASVKVSCKASGYTFSNYYMHWVRQAPGQGLEWMGWINPFSGGTRYAQKFQGRVTMTRDTSTSTVYMELSSLRSEDTAVYYCARDVGSSAYYYMDVWGKGTTVTVSS VL: DIQMTQSPSSVSASVGDRVTITCEASKGISSWLAWYQQKPGKAPKLLIYAASDLQSGVPSRFSGSGSGTDFTLTISSLQPEDFATYYCQQAFLFPPTFGGGTKVEIK				29.5	0.0284	963000	
ADI-11807 Fab (Fab, V domains shown, Fab fragment; also called Ab5; I07) VH: EVQLVESGGGLVQPGGSLRLSCAASGFTFGSYWMSWVRQAPGKGLEWVATIKQDGSEKSYVDSVKGRFTISRDNAKNSLYLQMNSLRAEDTAVYYCARPLNAGELDVWGQGTMVTVSS VL: DIQMTQSPSTLSASVGDRVTITCRASQSISSWLAWYQQKPGKAPKLLIYEASSLESGVPSRFSGSGSGTEFTLTISSLQPDDFATYYCQQSQSYPPITFGGGTKVEIK	0.43	0.000259	597000				
ADI-10159 IgG (antibody, V domains shown, IgG; also called Ab1; G59) VH: EVQLVESGGGLVQPGGSLRLSCAASGFTFSSYGMSWVRQAPGKGLEWVANIKQDGSEKYYVDSVKGRFTISRDNAKNSLYLQMNSLRAEDTAVYYCAREGGPYYDSSGYFVYYGMDVWGQGTTVTVSS VL: DIQMTQSPSTLSASVGDRVTITCRASQSISSWLAWYQQKPGKAPKLLIYDASSLESGVPSRFSGSGSGTEFTLTISSLQPDDFATYYCQQYESFPTFGGGTKVEIK							Kd [3]: 0.58 nM; koff [3]: 0.0002 s⁻¹

The next lines start with results.

Kd (Human CD33 R69G [1]) [nM]	koff (Human CD33 R69G [1]) [s⁻¹]	kon (Human CD33 R69G [1]) [M⁻¹ s⁻¹]	Kd (Human CD33 S128N) [nM]	koff (Human CD33 S128N) [s⁻¹]	kon (Human CD33 S128N) [M⁻¹ s⁻¹]	Binder	further results
63.7	0.0533	836000	85.7	0.0673	786000	ADI-10160 Fab (Fab, V domains shown, Fab fragment; also called Ab15) VH: EVQLVESGGGLVQPGGSLRLSCAASGFTFSSYWMSWVRQAPGKGLEWVANINQDGSEKYYVDSVKGRFTISRDNAKNSLYLQMNSLRAEDTAVYYCAREANYYGNVGDDYWGQGTLVTVSS VL: not shown	
3.74	0.00695	1.86e+06	3.09	0.00649	2.1e+06	ADI-11825 Fab (Fab, V domains shown, Fab fragment; also called Ab25) VH: EVQLVESGGGLVQPGGSLRLSCAASGFTFGGYWMSWVRQAPGKGLEWVANINQDGSEEYYVDSVKGRFTISRDNAKNSLYLQMNSLRAEDTAVYYCAREANYYGNVGDDYWGQGTLVTVSS VL: DIQMTQSPSSLSASVGDRVTITCRASQSIYNYLNWYQQKPGKAPKLLIYAASNLHSGVPSRFSGSGSGTDFTLTISSLQPEDFATYYCQQAFHVPITFGGGTKVEIK	
2.94	0.00663	2.27e+06				ADI-11830 Fab (Fab, V domains shown, Fab fragment; also called Ab9) VH: EVQLVESGGGLVQPGGSLRLSCAASGFTFSSYWMSWVRQAPGKGLEWVANINTDGSEVYYVDSVKGRFTISRDNAKNSLYLQMNSLRAEDTAVYYCARDVGPGIAYQGHFDYWGQGTLVTVSS VL: DIQMTQSPSSLSASVGDRVTITCRASQVIYSYLNWYQQKPGKAPKLLIYAASSLKSGVPSRFSGSGSGTDFTLTISSLQPEDFATYYCQQVYDTPLTFGGGTKVEIK	
0.67	0.00205	3.07e+06				ADI-11835 Fab (Fab, V domains shown, Fab fragment; also called Ab10; 135 (so in the source)) VH: QLQLQESGPGLVKPSETLSLTCTVSGGSISSTDYYWGWIRQPPGKGLEWIGSIGYSGTYYNPSLKSRVTISVDTSKNQFSLKLSSVTAADTAVYYCARETAHDVHGMDVWGQGTTVTVSS VL: EIVLTQSPATLSLSPGERATLSCRASHSVYSYLAWYQQKPGQAPRLLIYDASNRATGIPARFSGSGSGTDFTLTISSLEPEDFAVYYCQQYDNLPTFGGGTKVEIK	
48.9	0.0307	629000	63.6	0.0385	605000	ADI-10161 Fab (Fab, V domains shown, Fab fragment; also called Ab16) VH: EVQLVESGGGLVQPGGSLRLSCAASGFTFSSYWMSWVRQAPGKGLEWVANINQDGSEKYYVDSVKGRFTISRDNAKNSLYLQMNSLRAEDTAVYYCAREGGDSWYHAFDIWGQGTMVTVSS VL: DIQMTQSPSSVSASVGDRVTITCRASQGISSWLAWYQQKPGKAPKLLIYAASNLQSGVPSRFSGSGSGTDFTLTISSLQPEDFATYYCQQKLSLPLTFGGGTKVEIK	
6.74	0.00228	338000	2.01	0.00112	556000	ADI-11812 Fab (Fab, V domains shown, Fab fragment; also called Ab24) VH: QVQLVQSGAEVKKPGASVKVSCKASGYTFEIYYMHWVRQAPGQGLEWMGIINPSSGSTVYAQKFQGRVTMTRDTSTSTVYMELSSLRSEDTAVYYCARGAGYDDEDMDVWGKGTTVTVSS VL: DIQMTQSPSSVSASVGDRVTITCRASQGIDSWLAWYQQKPGKAPKLLIYAASSLQSGVPSRFSGSGSGTDFTLTISSLQPEDFATYYCQQAHSYPLTFGGGTKVEIK	
17.8	0.0287	1.56e+06	163	0.00924	56500	ADI-10157 Fab (Fab, V domains shown, Fab fragment; also called Ab13) VH: QVQLQESGPGLVKPSETLSLTCTVSGGSISSYYWSWIRQPPGKGLEWIGSIYYSGSTNYNPSLKSRVTISVDTSKNQFSLKLSSVTAADTAVYYCARVGGVYSTIETYGMDVWGQGTTVTVSS VL: EIVMTQSPATLSVSPGERATLSCRASQSVSSNLAWYQQKPGQAPRLLIYGASTRATGIPARFSGSGSGTEFTLTISSLQSEDFAVYYCQQYTVYPPTFGGGTKVEIK	
0.22	0.000179	815000				ADI-11809 Fab (Fab, V domains shown, Fab fragment; also called Ab6) VH: EVQLVESGGGLVQPGGSLRLSCAASGFTFPSYWMSWVRQAPGKGLEWVATIKRDGSEKGYVDSVKGRFTISRDNAKNSLYLQMNSLRAEDTAVYYCARPLNAGELDVWGQGTMVTVSS VL: DIQMTQSPSTLSASVGDRVTITCRASQSISSWLAWYQQKPGKAPKLLIYEASSLESGVPSRFSGSGSGTEFTLTISSLQPDDFATYYCQQSQSYPPITFGGGTKVEIK	
0.22	0.000426	1.98e+06				ADI-11776 Fab (Fab, V domains shown, Fab fragment; also called Ab3; H76) VH: EVQLLESGGGLVQPGGSLRLSCAASGFTFSKYTMSWVRQAPGKGLEWVSAIVGSGESTYFADSVKGRFTISRDNSKNTLYLQMNSLRAEDTAVYYCAREGGPYYDSSGYFVYYGMDVWGQGTTVTVSS VL: DIQMTQSPSTLSASVGDRVTITCRASQSISSWLAWYQQKPGKAPKLLIYKASSLESGVPSRFSGSGSGTEFTLTISSLQPDDFATYYCQQYDDLPTFGGGTKVEIK	koff (V domain of human CD33 [4]): 0.0143 s⁻¹; koff (V domain of human CD33 [5]): 0.0143 s⁻¹
5.68	0.00243	426000				ADI-10159 Fab (Fab, V domains shown, Fab fragment; also called Ab1; G59) VH: EVQLVESGGGLVQPGGSLRLSCAASGFTFSSYGMSWVRQAPGKGLEWVANIKQDGSEKYYVDSVKGRFTISRDNAKNSLYLQMNSLRAEDTAVYYCAREGGPYYDSSGYFVYYGMDVWGQGTTVTVSS VL: DIQMTQSPSTLSASVGDRVTITCRASQSISSWLAWYQQKPGKAPKLLIYDASSLESGVPSRFSGSGSGTEFTLTISSLQPDDFATYYCQQYESFPTFGGGTKVEIK	
0.09	0.000244	2.78e+06				ADI-11819 Fab (Fab, V domains shown, Fab fragment; also called Ab8) VH: EVQLVESGGGLVKPGGSLRLSCAASGFTFSSYAMSWVRQAPGKGLEWVSSISSSSEGIYYADSVKGRFTISRDNAKNSLYLQMNSLRAEDTAVYYCAREGGPYYDSSGYFVYYGMDVWGQGTTVTVSS VL: DIQMTQSPSTLSASVGDRVTITCRASNSISSWLAWYQQKPGKAPKLLIYEASSTKSGVPSRFSGSGSGTEFTLTISSLQPDDFATYYCQQYDDLPTFGGGTKVEIK	
